Measured values published in patent publication US20260028403A1 (Zymeworks, published 2026).

Columns and labels:
[1] = target: T1, Recombinant MSLN his tag protein (R&D systems) (UniProt Q13421 296-580, limits assumed); test: SPR Biacore T200, MSLN-his on CM5, construct flowed, 1:1 model
T1 construct: his tag; also called mesothelin

[2] = target: T2, Recombinant human CD3 epsilon/delta heterodimer, his tag protein (Acro Biosystems) (human, UniProt P07766 23-126; P04234 22-105); test: SPR Biacore T200, CD3 e/d-his on CM5, construct injected, 1:1 model;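 note: measured at 25 °C in HEPES-buffered saline with EDTA and Tween 20 at pH 7.4, values are means of three independent runs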
T2 construct: bought

[3] = target: T3, Recombinant human/cynomolgus/rhesus macaque CD28 mouse IgG2a Fc fusion protein (Acro Biosystems) (human/cynomolgus/rhesus macaque, UniProt P10747 19-152); test: SPR Biacore T200, CD28-mIgG2a Fc on CM5, construct injected, 1:1 model;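 note: fc fusion captured by amine coupling, run at 25 °C in HEPES buffer pH 7.4, association 140-500 s then dissociation 600-1200 s, values averaged over three independent runs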
T3 construct: bought; also called huCD28

Human CLDN18.2 = target: T4, Human CLDN18.2 (human); test: flow cytometry, SNU 601 cells
T4 construct: on transfected HEK293-6E cells or native on SNU 601 cells

Binder	Kd [1]	koff [1]	kon [1]	Kd [2]	koff [2]	kon [2]	Kd [3]	koff [3]	kon [3]	Bmax (Human CLDN18.2)	EC50 (Human CLDN18.2)
v34917 (trispecific antibody, human IgG1, lambda, L234A L235A, Het Fc, FcKO; also called CD28xCD3xMSLN trispecific) heavy 1: EVQLVESGGGLVQPGGSLRLSCAASGVTFNYYGMSWIRQAPGKGLEWVASITSSGGRIYYPDSVKGRFTISRENTQKTLYLQMNSLRAEDTAVYYCTLDGRDGWVAYWGQGTLVTVSSASTKGPSVFPLAPSSKSTSGGTAALGCLVKDYFPEPVTVSWNSGALTSGVHTFPAVLQSSGLYSLSSVVTVPSSSLGTQTYICNVNHKPSNTKVDKKVEPKSCDKTHTCPPCPAPEAAGGPSVFLFPPKPKDTLMISRTPEVTCVVVSVSHEDPEVKFNWYVDGVEVHNAKTKPREEQYNSTYRVVSVLTVLHQDWLNGKEYKCKVSNKALPAPIEKTISKAKGQPREPQVYVYPPSRDELTKNQVSLTCLVKGFYPSDIAVEWESNGQPENNYKTTPPVLDSDGSFALVSKLTVDKSRWQQGNVFSCSVMHEALHNHYTQKSLSLSPGGGGGSGDIQMTQSPSSLSASVGDRVTITCRASESVEYYVTSLMQWYQQKPGKAPKLLIYAASNVDSGVPSRFSGSGSGTDFTLTISSLQPEDIATYYCQQSRKVPFTFGGGTKVEIKGGGGSGGGGSGGGGSGGGGSQVQLQESGPGLVKPSETLSLTCAVSGFSLTSYGVHWIRQPPGKGLEWLGVIWPGGGTNFNSALMSRLTISEDTSKNQVSLKLSSVTAADTAVYYCARDRAYGNYLYAMDYWGQGTLVTVSS heavy 2: EIVLTQSPATLSLSPGERVTMSCSASSSVSYMHWYQQKPGQAPRLWIYDTSKLASGVPARFSGSGSGTDYTLTISSVEPEDNAVYYCQQWSGHPLTFGQGTKVEIKGGGGSGGGGSGGGGSGGGGSQVQLVQSGAEVKKPGASVKISCKASGYSFTGYTMNWVRQAPGQGLEWIGLITPYSGASSYAQKFQGRATLTVDKSTSTAYMELSSLRSEDTAVYYCARGGYDGRGFDYWGQGTNVTVSSAAEPKSSDKTHTCPPCPAPEAAGGPSVFLFPPKPKDTLMISRTPEVTCVVVSVSHEDPEVKFNWYVDGVEVHNAKTKPREEQYNSTYRVVSVLTVLHQDWLNGKEYKCKVSNKALPAPIEKTISKAKGQPREPQVYVLPPSRDELTKNQVSLLCLVKGFYPSDIAVEWESNGQPENNYLTWPPVLDSDGSFFLYSKLTVDKSRWQQGNVFSCSVMHEALHNHYTQKSLSLSPG light: NFMLTQPHSVSESPGKTVTISCKRNTGNIGSNYVNWYQQHEGSSPTTIIYRNDKRPDGVSDRFSGSIDRSSKSASLTISNLKTEDEADYFCQSYSSGFIFGGGTKLTVLGQPKAAPSVTLFPPSSEELQANKATLVCLISDFYPGAVTVAWKADSSPVKAGVETTTPSKQSNNKYAASSYLSLTPEQWKSHRSYSCQVTHEGSTVEKTVAPTECS	4.96 nM	0.00199 s⁻¹	411000 M⁻¹ s⁻¹	40.8 nM	0.0177 s⁻¹	444000 M⁻¹ s⁻¹	373 nM	0.00209 s⁻¹	8240 M⁻¹ s⁻¹		
v34918 (trispecific antibody, human IgG1, kappa, L234A L235A, Het Fc, FcKO; also called CD28xCD3xMSLN trispecific) heavy 1: QVQLQESGPGLVKPSETLSLTCAVSGFSLTSYGVHWIRQPPGKGLEWLGVIWPGGGTNFNSALMSRLTISEDTSKNQVSLKLSSVTAADTAVYYCARDRAYGNYLYAMDYWGQGTLVTVSSASTKGPSVFPLAPSSKSTSGGTAALGCLVKDYFPEPVTVSWNSGALTSGVHTFPAVLQSSGLYSLSSVVTVPSSSLGTQTYICNVNHKPSNTKVDKKVEPKSCDKTHTCPPCPAPEAAGGPSVFLFPPKPKDTLMISRTPEVTCVVVSVSHEDPEVKFNWYVDGVEVHNAKTKPREEQYNSTYRVVSVLTVLHQDWLNGKEYKCKVSNKALPAPIEKTISKAKGQPREPQVYVYPPSRDELTKNQVSLTCLVKGFYPSDIAVEWESNGQPENNYKTTPPVLDSDGSFALVSKLTVDKSRWQQGNVFSCSVMHEALHNHYTQKSLSLSPGGGGGSGNFMLTQPHSVSESPGKTVTISCKRNTGNIGSNYVNWYQQHEGSSPTTIIYRNDKRPDGVSDRFSGSIDRSSKSASLTISNLKTEDEADYFCQSYSSGFIFGGGTKLTVLGGGGSGGGGSGGGGSGGGGSEVQLVESGGGLVQPGGSLRLSCAASGVTFNYYGMSWIRQAPGKGLEWVASITSSGGRIYYPDSVKGRFTISRENTQKTLYLQMNSLRAEDTAVYYCTLDGRDGWVAYWGQGTLVTVSS heavy 2: EIVLTQSPATLSLSPGERVTMSCSASSSVSYMHWYQQKPGQAPRLWIYDTSKLASGVPARFSGSGSGTDYTLTISSVEPEDNAVYYCQQWSGHPLTFGQGTKVEIKGGGGSGGGGSGGGGSGGGGSQVQLVQSGAEVKKPGASVKISCKASGYSFTGYTMNWVRQAPGQGLEWIGLITPYSGASSYAQKFQGRATLTVDKSTSTAYMELSSLRSEDTAVYYCARGGYDGRGFDYWGQGTNVTVSSAAEPKSSDKTHTCPPCPAPEAAGGPSVFLFPPKPKDTLMISRTPEVTCVVVSVSHEDPEVKFNWYVDGVEVHNAKTKPREEQYNSTYRVVSVLTVLHQDWLNGKEYKCKVSNKALPAPIEKTISKAKGQPREPQVYVLPPSRDELTKNQVSLLCLVKGFYPSDIAVEWESNGQPENNYLTWPPVLDSDGSFFLYSKLTVDKSRWQQGNVFSCSVMHEALHNHYTQKSLSLSPG light: DIQMTQSPSSLSASVGDRVTITCRASESVEYYVTSLMQWYQQKPGKAPKLLIYAASNVDSGVPSRFSGSGSGTDFTLTISSLQPEDIATYYCQQSRKVPFTFGGGTKVEIKRTVAAPSVFIFPPSDEQLKSGTASVVCLLNNFYPREAKVQWKVDNALQSGNSQESVTEQDSKDSTYSLSSTLTLSKADYEKHKVYACEVTHQGLSSPVTKSFNRGEC	7.08 nM	0.00187 s⁻¹	294000 M⁻¹ s⁻¹	118 nM	0.0135 s⁻¹	118000 M⁻¹ s⁻¹	50 nM	0.00259 s⁻¹	52700 M⁻¹ s⁻¹		
v37633 (trispecific antibody, human IgG1, lambda, L234A L235A, Het Fc, FcKO; also called CD28xCD3xCldn18.2 trispecific) heavy 1: not shown heavy 2: QVQLVESGGGLVQPGGSLRLSCSVSGIDLSSNPMIWVRQAPGKGLQYIGIIDTDGSTYYADWAKGRFTISKDSTTVYLQINSPRAEDTAVYYCARRLHGSSNGYYDDLWGQGTLVTVSSGGGGSGGGGSGGGGSGGGGSDGQMTQSPSSVSASVGDRVTITCQASQSIYSYLSWYQQKPGQRPKLLIYKASTLASGVPSRFSGSGSGTDFTLTISSVQPEDFATYYCQQGYTVTNVDKNTFGGGTKVEIKAAEPKSSDKTHTCPPCPAPEAAGGPSVFLFPPKPKDTLMISRTPEVTCVVVSVSHEDPEVKFNWYVDGVEVHNAKTKPREEQYNSTYRVVSVLTVLHQDWLNGKEYKCKVSNKALPAPIEKTISKAKGQPREPQVYVLPPSRDELTKNQVSLLCLVKGFYPSDIAVEWESNGQPENNYLTWPPVLDSDGSFFLYSKLTVDKSRWQQGNVFSCSVMHEALHNHYTQKSLSLSPG light: NFMLTQPHSVSESPGKTVTISCKRNTGNIGSNYVNWYQQHEGSSPTTIIYRNDKRPDGVSDRFSGSIDRSSKSASLTISNLKTEDEADYFCQSYSSGFIFGGGTKLTVLGQPKAAPSVTLFPPSSEELQANKATLVCLISDFYPGAVTVAWKADSSPVKAGVETTTPSKQSNNKYAASSYLSLTPEQWKSHRSYSCQVTHEGSTVEKTVAPTECS				135 nM	0.0176 s⁻¹	130000 M⁻¹ s⁻¹	55.1 nM	0.0062 s⁻¹	113000 M⁻¹ s⁻¹	8570 MFI	40.8 nM
v37663 (bispecific antibody, human IgG1, lambda, L234A L235A, 13B08 VH-VL scFv); also called anti-(CLDN18.2xCD3) bispecific control) heavy 1: not shown heavy 2: QVQLVESGGGLVQPGGSLRLSCSVSGIDLSSNPMIWVRQAPGKGLQYIGIIDTDGSTYYADWAKGRFTISKDSTTVYLQINSPRAEDTAVYYCARRLHGSSNGYYDDLWGQGTLVTVSSGGGGSGGGGSGGGGSGGGGSDGQMTQSPSSVSASVGDRVTITCQASQSIYSYLSWYQQKPGQRPKLLIYKASTLASGVPSRFSGSGSGTDFTLTISSVQPEDFATYYCQQGYTVTNVDKNTFGGGTKVEIKAAEPKSSDKTHTCPPCPAPEAAGGPSVFLFPPKPKDTLMISRTPEVTCVVVSVSHEDPEVKFNWYVDGVEVHNAKTKPREEQYNSTYRVVSVLTVLHQDWLNGKEYKCKVSNKALPAPIEKTISKAKGQPREPQVYVLPPSRDELTKNQVSLLCLVKGFYPSDIAVEWESNGQPENNYLTWPPVLDSDGSFFLYSKLTVDKSRWQQGNVFSCSVMHEALHNHYTQKSLSLSPG light: NFMLTQPHSVSESPGKTVTISCKRNTGNIGSNYVNWYQQHEGSSPTTIIYRNDKRPDGVSDRFSGSIDRSSKSASLTISNLKTEDEADYFCQSYSSGFIFGGGTKLTVLGQPKAAPSVTLFPPSSEELQANKATLVCLISDFYPGAVTVAWKADSSPVKAGVETTTPSKQSNNKYAASSYLSLTPEQWKSHRSYSCQVTHEGSTVEKTVAPTECS				76.4 nM	0.0157 s⁻¹	206000 M⁻¹ s⁻¹				9200 MFI	31.3 nM
